{
  "source": "paper PMC5286520",
  "conditions_in_all_cases": "modification not given",
  "key": {"[1]": {"molecular_target": "V1aR (Homo sapiens), P37288", "sequence (P37288 whole entry)": "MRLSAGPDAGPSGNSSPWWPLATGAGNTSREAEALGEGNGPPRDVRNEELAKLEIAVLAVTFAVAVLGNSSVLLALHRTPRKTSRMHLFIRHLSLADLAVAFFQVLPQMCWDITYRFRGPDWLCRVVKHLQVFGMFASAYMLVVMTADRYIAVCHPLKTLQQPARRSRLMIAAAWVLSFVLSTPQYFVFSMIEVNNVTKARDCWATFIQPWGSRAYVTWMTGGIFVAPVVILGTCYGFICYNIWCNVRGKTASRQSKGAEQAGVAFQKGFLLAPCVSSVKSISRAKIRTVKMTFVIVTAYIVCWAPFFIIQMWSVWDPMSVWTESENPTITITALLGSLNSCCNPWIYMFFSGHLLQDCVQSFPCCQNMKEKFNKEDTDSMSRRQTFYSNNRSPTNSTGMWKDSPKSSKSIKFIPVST", "assay": "radioligand displacement"}, "[2]": {"molecular_target": "T1, OTR (Homo sapiens), P30559", "T1 chain": "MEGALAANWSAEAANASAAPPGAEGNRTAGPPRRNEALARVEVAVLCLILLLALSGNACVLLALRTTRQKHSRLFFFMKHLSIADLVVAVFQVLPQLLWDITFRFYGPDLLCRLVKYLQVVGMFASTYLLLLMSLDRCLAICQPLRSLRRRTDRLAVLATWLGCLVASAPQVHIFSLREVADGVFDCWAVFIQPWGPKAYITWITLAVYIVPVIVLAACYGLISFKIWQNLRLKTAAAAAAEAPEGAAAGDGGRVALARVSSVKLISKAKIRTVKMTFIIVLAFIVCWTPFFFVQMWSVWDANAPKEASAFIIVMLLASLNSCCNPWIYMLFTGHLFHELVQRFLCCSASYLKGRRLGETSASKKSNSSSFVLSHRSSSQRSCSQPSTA", "assay": "radioligand displacement"}, "[3]": {"molecular_target": "T2, V1bR (Homo sapiens), P47901", "T2 chain": "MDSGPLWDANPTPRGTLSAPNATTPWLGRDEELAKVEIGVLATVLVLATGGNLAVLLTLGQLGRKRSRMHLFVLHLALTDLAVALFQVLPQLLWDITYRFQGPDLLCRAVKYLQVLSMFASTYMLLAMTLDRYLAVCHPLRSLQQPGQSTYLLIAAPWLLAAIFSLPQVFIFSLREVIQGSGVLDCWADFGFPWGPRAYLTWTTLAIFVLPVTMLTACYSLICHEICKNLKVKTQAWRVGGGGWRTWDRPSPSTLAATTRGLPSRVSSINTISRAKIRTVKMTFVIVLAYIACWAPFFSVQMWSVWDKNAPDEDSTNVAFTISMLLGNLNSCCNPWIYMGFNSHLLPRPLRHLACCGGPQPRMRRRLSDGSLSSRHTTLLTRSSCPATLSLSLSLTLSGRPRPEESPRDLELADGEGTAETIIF", "assay": "radioligand displacement"}, "[4]": {"molecular_target": "V2R (Homo sapiens), P30518", "assay": "radioligand"}},
  "data": [
    {"binder": "CLITNCPRG", "note": "[inotocin]", "values": [
      {"measurement": "Ki", "setting": "[1]", "value": 11, "unit": "nM"},
      {"measurement": "Ki", "setting": "[2]", "value": 62, "unit": "nM"},
      {"measurement": "Ki", "setting": "[3]", "value": 12, "unit": "nM"},
      {"measurement": "Ki", "setting": "[4]", "value": "> 100", "unit": "µM"}
    ]}
  ]
}
